Consider 17 molecules from US20220348652A1 (ANTAIMMU BIOMED, published 2022).

What is called EC50 is the midpoint of the concentration-response curve. Higher therefore signals a need for much substance.

In assay [1] the target is T1, human CD47 polypeptide (Met1-Pro139 of human CD47 fused with a Fc region) (human, UniProt Q08722 19-139).
T1 construct: range 1-139; Made in HEK293 cells and purified from the supernatant; also called CD47 protein; not shown: Fc region
The assay is described as follows: single colony ELISA, scFv supernatant on coated CD47 polypeptide. On the procedure: Phages were infected into E. coli host cells followed by plating the infected E. coli cells on agar plate. Each colony was picked up and cultured in 2×YT (yeast extract tryptone) medium containing 100 μg/ml ampicillin with vigorous shacking at 37° C. After OD₆₀₀ of the culture was greater than 1, isopropyl β-d-1-thiogalactopyranoside (IPTG) was added to each culture and the final concentration of IPTG was 1 mM. The cultures were incubated at 37° C. overnight, and then centrifuged 4,000×g for 10 minutes. The scFvs were secreted and collected from the supernatant. The collected scFvs were added onto a 96-well plate coated with CD47 polypeptide followed by the analysis of ELISA so as to determining the binding affinity of the selected scFvs and CD47 polypeptide.
(In general: An ELISA detects its analyte on a solid surface through an enzyme-linked reagent.)

The target in assay [2] is T2, human CD47 expressed on CHO-CD47 cells (human, UniProt Q08722 19-323).
T2 construct: whole, on cells; also called cellular CD47; full-length CD47
Nature of the assay: flow cytometry on CHO-CD47 cells (MFI, FIG. 2). On the procedure:
The binding of the anti-CD47 scFvs to the surface of CHO-CD47 cells was determined by flow cytometry, and the data was expressed as mean fluorescence intensity (MFI).
(A flow cytometer gives signals particle by particle.)

For assay [3], the target named is T1, human CD47 polypeptide (Met1-Pro139 of …). Nature of the assay: ELISA on coated CD47 polypeptide (FIG. 1).
Assay [4] has as its target T2, human CD47 expressed on CHO-CD47 cells. Nature of the assay: flow cytometry, IgG on CHO-CD47 cells. How it is done: The anti-CD47 scFvs were respectively expressed in their IgG formats in accordance with the procedure described in Materials and Methods. CHO cells expressing CD47 (CHO-CD47 cells) and wild-type CHO cells (CHO-WT cells) were respectively treated with anti-CD47 IgGs. After washing, the binding of the anti-CD47 IgGs was detected using a polyclonal APC-conjugated anti-human IgG antibody. Relative MFI was measured by flow cytometry. Antibody R23, a reference antibody constructed according to the sequences of ADI29341 disclosed in US20200181259A1, served as a positive control in this study.

B1: scFv CD47-20 (scFv, V domains shown)
VL: DIQMTQSPSSLSASVGDRVTITCRASQDVHNKVAWYQQKPGKAPKLLIYYTSNLYSGVPSRFSGSGSGTDFTLTISSLQPEDFATYYCQQHFTYPLTFGQGTKVEIKR
VH: EVQLVESGGGLVQPGGSLRLSCAASGFTISNYYIHWVRQAPGKGLEWVAGIWPSGGSTSYADSVKGRFTISADTSKNTAYLQMNSLRAEDTAVYYCTRGGYAMDYWGQGTLVTVSS
notes: scFv
On to B1, for which the binding result in assay [1] and in assay [2] was “binds” throughout.

B2: scFv CD47-31 (scFv, V domains shown)
VL: DIQMTQSPSSLSASVGDRVTITCRASQDVHSKVAWYQQKPGKAPKLLIYSTNRLYSGVPSRFSGSGSGTDFTLTISSLQPEDFATYYCQQHSNYPVTFGQGTKVEIKR
VH: EVQLVESGGGLVQPGGSLRLSCAASGFTISNWWIHWVRQAPGKGLEWVAAINPFNGRTDYADSVKGRFTISADTSKNTAYLQMNSLRAEDTAVYYCTRGGYAMDYWGQGTLVTVSS
notes: scFv
As for B2, the binding result in assay [1] and in assay [2] was “binds” each time.

B3: scFv CD47-8 (scFv, V domains shown)
VL: DIQMTQSPSSLSASVGDRVTITCRASQDVHYAVAWYQQKPGKAPKLLIYGTNRLYPGVPSRFSGSGSGTDFTLTISSLQPEDFATYYCQQHSNFPLTFGQGTKVEIKR
VH: EVQLVESGGGLVQPGGSLRLSCAASGFTINNFYIHWVRQAPGKGLEWVASIWPWSGETGYADSVKGRFTIGADTSKNTAYLQMNSLRAEDTAVYYCARGGFAMDFWGQGTLVTVSS
notes: scFv
As for B3, the binding result in assay [3] and in assay [2] was “binds” each time.

B4: scFv CD47-28 (scFv, V domains shown)
VL: DIQMTQSPSSLSASVGDRVTITCRASQDVHGKVAWYQQKPGKAPKLLIYYARNLYSGVPSRFSGSGSGTDFTLTISSLQPEDFASYYCQQYFNFPLTFGQGTKVEIKR
VH: EVQLVESGGGLVQPGGSLRLSCAASGFTITNWWIHWVRQAPGKGLEWVAEINPFGGNTYYADSVKGRFTISADTSKNTAYLQMNSLRAEDTAVYYCTRGGYAMDYWGQGTLVTVSS
notes: scFv
With B4, the binding result in assay [1] and in assay [2] was “binds” in each case.

B5: scFv CD47-32 (scFv, V domains shown)
VL: DIQMTQSPSSLSASVGDRVTITCRASQDVHYTVAWYQQKPGKAPKLLIYGTNRLYTGVPSRFSGSGSGTDFTLTISSLQPEDFATYYCQQHFNFPITFGQGTKVEIKR
VH: EVQLVESGGGLVQPGGSLRLSCAASGFTINNFWIHWVRQAPGKGLEWVANISPFTGDTRYADSVKGRFTISADTSKNTAYLQMNSLRAEDTAVYYCARGGYAMDIWGQGTLVTVSS
notes: scFv
As for B5, the binding result in assay [1] and in assay [2] was “binds” in each case.

B6: scFv CD47-27 (scFv, V domains shown)
VL: DIQMTQSPSSLSASVGDRVTITCRASQDVHNGVAWYQQKPGKAPKLLIFRTSWLLSGVPSRFSGSGSGTDFTLTISSLQPEDFATYYCQQGSSFPFTFGQGTKVEIKR
VH: EVQLVESGGGLVQPGGSLRLSCAASGFTINNYWIHWVRQAPGKGLEWVARISPFDGGTYYADSVKGRFTISADTSKNTAYLQMNSLRAEDTAVYYCARGGYAMDLWGQGTLVTVSS
notes: scFv
In the case of B6, the binding result in assay [1] and in assay [2] was “binds” throughout.

B7: CD47-7 IgG (antibody, V domains shown)
VH: EVQLVESGGGLVQPGGSLRLSCAASGFTITNYYIHWVRQAPGKGLEWVASIWPGYGNTGYADSVKGRFTISADTSKNTAYLQMNSLRAEDTAVYYCARGGYSMDFWGQGTLVTVSS
VL: DIQMTQSPSSLSASVGDRVTITCRASQDVYTRVAWYQQKPGKAPKLLIYYTRNLYSGVPSRFSGSGSGTDFTLTISSLQPEDFATYYCQQAANYPLTFGQGTKVEIKR
notes: IgG made in CHO cells; constant domains as for m19; also called antibody CD47-7
Molecule B7 had an EC50 in assay [4] of 2.44 µg/mL.

B8: CD47-2 IgG (antibody, V domains shown)
VH: EVQLVESGGGLVQPGGSLRLSCAASGFTISNSFIHWVRQAPGKGLEWVAYIWPWSGSTGYADSVKGRFTISADTSKNTAYLQMNSLRAEDTAVYYCARGGFSMDHWGQGTLVTVSS
VL: DIQMTQSPSSLSASVGDRVTITCRASQDVSSKVAWYQQKPGKAPKLLIYGTNRLYPGVPSRFSGSGSGTDFTLTISSLQPEDFATYYCQQSSNYPLTFGQGTKVEIKR
notes: IgG made in CHO cells from the scFv; The VL-CL junction was not checked (VL ends in ...EIKR); also called antibody CD47-2
Turning to B8, the EC50 in assay [4] was 2.34 µg/mL.

B9: scFv CD47-5 (scFv, V domains shown)
VL: DIQMTQSPSSLSASVGDRVTITCRASQDVHNKVAWYQQKPGKAPKLLIYSATRLYPGVPSRFSGSGSGTDFTLTISSLQPEDFATYYCQQHFNYPLTFGQGTKVEIKR
VH: EVQLVESGGGLVQPGGSLRLSCAASGFTITNYWIHWVRQAPGKGLEWVAHIWPGVGDTDYADSVKGRFTISADTSKNTAYLQMNSLRAEDTAVYYCARGGFAMDLWGQGTLVTVSS
notes: scFv
In the case of B9, the binding result in assay [3] and in assay [2] was “binds” each time.

B10: scFv CD47-6 (scFv, V domains shown)
VL: DIQMTQSPSSLSASVGDRVTITCRASQDVSSRVAWYQQKPGKAPKLLIYYTSNLYSGVPSRFSGSGSGTDFTLTISSLQPEDFATYYCQQHFNYPLTFGQGTKVEIKR
VH: EVQLVESGGGLVQPGGSLRLSCAASGFTITNWWIHWVRQAPGKGLEWVATISPYSGDTHYADSVKGRFTISADTSKNTAYLQMNSLRAEDTAVYYCARGGYAMDHWGQGTLVTVSS
notes: scFv
For the molecule B10, the binding result in assay [3] and in assay [2] was “binds” in each case.

B11: scFv CD47-29 (scFv, V domains shown)
VL: DIQMTQSPSSLSASVGDRVTITCRASQDVHSKVAWYQQKPGKAPKLLIYSTNRLYPGVPSRFSGSGSGTDFTLTISSLQPEDFATYYCQQHFTYPLTFGQGTKVEIKR
VH: EVQLVESGGGLVQPGGSLRLSCAASGFTITNWWIHWVRQAPGKGLEWVAGITPYSGDTYYADSVKGRFTISADTSKNTAYLQMNSLRAEDTAVYYCARGGYAIDNWGQGTLVTVSS
notes: scFv
In the case of B11, the binding result in assay [1] and in assay [2] was “binds” in each case.

B12: scFv CD47-14 (scFv, V domains shown)
VL: DIQMTQSPSSLSASVGDRVTITCRASQDVSTKVAWYQQKPGKAPKLLIYFTRNLYSGVPSRFSGSGSGTDFTLTISSLQPEDFATYYCQQHSNYPVTFGQGTKVEIKR
VH: EVQLVESGGGLVQPGGSLRLSCAASGFTISNWWIHWVRQAPGKGLEWVAGISPYSGKTDYADSVKGRFTISADTSKNTAYLQMNSLRAEDTAVYYCARGGYAMDLWGQGTLVTVSS
notes: scFv
As to B12, the binding result in assay [3] and in assay [2] was “binds” each time.

B13: scFv CD47-9 (scFv, V domains shown)
VL: DIQMTQSPSSLSASVGDRVTITCRASQDVSNRVAWYQQKPGKAPKLLIYGTNRLYTGVPSRFSGSGSGTDFTLTISSLQPEDFATYYCQQHFNYPITFGQGTKVEIKR
VH: EVQLVESGGGLVQPGGSLRLSCAASGFTINSWWIHWVRQAPGKGLEWVAKISPFNGDTHYADSVKGRFTISADTSKNTAYLQMNSLRAEDTAVYYCARGGYAMDIWGQGTLVTVSS
notes: scFv
Regarding B13, the binding result in assay [3] and in assay [2] was “binds” each time.

B14: scFv CD47-4 (scFv, V domains shown)
VL: DIQMTQSPSSLSASVGDRVTITCRASQSVDNGVAWYQQKPGKAPKLLIYSATRLYPGVLSRFSGSGSGTDFTLTISSLQPEDFATYYCQQSSTFPLTFGQGTKVEIKR
VH: EVQLVESGGGLVQPGGSLRLSCAASGFTINDYWIHWVRQAPGKGLEWVAHIWPTYGGTHYADSVKGRFTISADTSKNTAYLQMNSLRAEDAAVYYCARGGYSLDIWGQGTLVTVSS
notes: scFv
Take B14: the binding result in assay [3] and in assay [2] was “binds” each time.

B15: scFv CD47-22 (scFv, V domains shown)
VL: DIQMTQSPSSLSASVGDRVTITCRASQDVHSWVAWYQQKPGKAPKLLISRATWLASGVPSRFSGSGSGTDFTLTISSLQPEDFATYYCQQSSNFPLTFGQGTKVEIKR
VH: EVQLVESGGGLVQPGGSLRLSCAASGFTINDYGIHWVRQAPGKGLEWVAGIGPFWGSTFYADSVKGRFTISADTSKNTAYLQMNSLRAEDTAVYYCARWMWGRWSAMDYWGQGTLVTVSS
notes: scFv
With B15, the binding result in assay [1] and in assay [2] was “binds” throughout.

B16: scFv CD47-3 (scFv, V domains shown)
VL: DIQMTQSPSSLSASVGDRVTITCRASQDVSNRVAWYQQKPGKAPKLLISRANGLASGVPSRFSGSGSGTDFTLTISSLQPEDFATYYCQQGSHFPITFGQGTKVEIKR
VH: EVQLVESGGGLVQPGGSLRLSCAASGFTISNWWIHWVRQAPGKGLEWVAHIGPTVGKTYYADSVKGRFTISADTSKNTAYLQMNSLRAEDTAVYYCARGGFAMDHWGQGTLVTVSS
notes: scFv
For the molecule B16, the binding result in assay [1] and in assay [2] was “binds” in each case.

B17: Antibody R23 (antibody, from another filing, V domains shown)
VH: QVQLQESGPGLVKPSETLSLTCTVSGGSIEHYYWSWIRQPPGKGLEWIGYIYYSGSTNYNPSLKSRVTISVDTSKNQFSLKLSSVTAADTAVYYCARGKTGSAAWGQGTLVTVSS
VL: DIQMTQSPSSVSASVGDRVTITCRASQGISRWLAWYQQKPGKAPKLLIYAASSLQSGVPSRFSGSGSGTDFTLTISSLQPEDFATYYCQQTVSFPITFGGGTKVEIKR
The molecule B17 showed an EC50 in assay [4] of 4.18 µg/mL.
